Assay results: PMC4506739

Biological target: importin α ΔIBB (NLS-recognition domain of importin α)
Assay: ITC

| fold higher affinity than TPX2 NLS [fold] | stoichiometry N | Substance |
| --- | --- | --- |
| 9 | 1 | GM130 N74 S25D-GST (Cdk1 phospho-mimicking mutant) (from UniProt Q62839 1-74) (domain or fragment) |
|  | 1 | GST-TPX2 NLS wildtype (mouse TPX2 residues 302-322) (from UniProt A2APB8 302-322) (peptide) |
